Measured values reported in the supplement of paper PMC10724198.
± gives the standard deviation of the averaged measurements.

Tested on: Saccharomyces cerevisiae
Experiment: protein stability index of tFT-peptide fusion (C-terminal peptide) (PSI (0-1 scale)); higher = more stable (slower turnover)
Conditions: genetic background: wild type; temperature: 30 C
Method: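 Multiplexed protein stability (MPS) profiling in S. cerevisiae. Random 12-aa peptides (tFT-X12 library) are fused to the C-terminus of a sfGFP-mCherry tandem fluorescent timer, after mCherry and a GGGS linker. Cells are FACS-sorted into 8 mCherry/sfGFP bins and deep-sequenced. The protein stability index (PSI) is the read-weighted bin average, scaled from 0 (unstable) to 1 (stable). Only peptides with >10 reads are reported; cells were grown at 30 °C in SC-His with glucose.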
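Note: PSI is a weighted mean of sequencing reads over stability bins, variants kept only with over 10 reads, mCherry proximal and sfGFP distal, peptide attached via GGGS linker.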

## PQRRPPASTRSD
  protein stability index: 0.682 ± 0.018

## GGTCWEGEVVDV
  protein stability index: 0.641 ± 0.029

## IKKLNTYIKRNV
  protein stability index: 0.586 ± 0.025

## FPPLTRPSPIYP
  protein stability index: 0.726 ± 0.03

## SRCGSFRICFGT
  protein stability index: 0.638 ± 0.013

## LSPPSSPPPTPS
  protein stability index: 0.714 ± 0.076

## DMCLSVIEQTAC
  protein stability index: 0.6123 ± 0.0028

## INWGVRGTLSSE
  protein stability index: 0.706 ± 0.04

## GATRCQTYPAGA
  protein stability index: 0.686 ± 0.04

## LYTENSDLDRVF
  protein stability index: 0.657 ± 0.039

## PRSAPPRRPPTP
  protein stability index: 0.753 ± 0.075

## CIGVGTVRGSHG
  protein stability index: 0.673 ± 0.067

## PIGAFLSFWGQW
  protein stability index: 0.828 ± 0.087

## GSGTGRWPGYGS
  protein stability index: 0.718 ± 0.088

## VRRRLRLFLMWG
  protein stability index: 0.588 ± 0.0052

## RRDRFSLRGFTE
  protein stability index: 0.701 ± 0.013

## GLSLFPVTFFLR
  protein stability index: 0.585 ± 0.02

## SIVIGGSWGRSW
  protein stability index: 0.711 ± 0.052

## NAYRLSCGDNTN
  protein stability index: 0.683 ± 0.027

## LLAPPLPPPRHG
  protein stability index: 0.674 ± 0.018

## LEGYFMLPRSAW
  protein stability index: 0.736 ± 0.065

## EKEWKRGTRKLD
  protein stability index: 0.702 ± 0.085

## QLRPLSPLPPQP
  protein stability index: 0.738 ± 0.029

## LDPGPLVRTPRL
  protein stability index: 0.692 ± 0.076

## RTTNHRLPQPPR
  protein stability index: 0.632 ± 0.063

## AFYGDNNTVERM
  protein stability index: 0.762 ± 0.053

## WSIEESLGIWLR
  protein stability index: 0.538 ± 0.021

## DSPPRATFSAPR
  protein stability index: 0.69 ± 0.036

## VRAVGSIILPPG
  protein stability index: 0.6558 ± 0.00093

## SFPPVSSLSFSP
  protein stability index: 0.707 ± 0.048

## DLFLTSSCPCLC
  protein stability index: 0.55106 ± 4.5e-05

## GGGAGGRQGCGG
  protein stability index: 0.771 ± 0.027

## NSIHRTRPKKII
  protein stability index: 0.641 ± 0.0048

## YSSFRSVNWVFP
  protein stability index: 0.6838 ± 0.0033

## TQRIEKEPTKKY
  protein stability index: 0.703 ± 0.04

## GKTNKALDRISI
  protein stability index: 0.679 ± 0.038

## RRGVPIKKPRYF
  protein stability index: 0.539 ± 0.029

## PLPVRPGQHRIL
  protein stability index: 0.6918 ± 0.0024

## LVCPLFCSRWWV
  protein stability index: 0.674 ± 0.1

## SFSLPLSPPSFF
  protein stability index: 0.721 ± 0.058

## CFVDHCPIAHIY
  protein stability index: 0.608 ± 0.022

## TRGPKYTMVVKR
  protein stability index: 0.672 ± 0.017

## EDKKKKTKANDT
  protein stability index: 0.669 ± 0.028

## GGRSSGRLMGKE
  protein stability index: 0.712 ± 0.013

## LGGVLSRQPYSE
  protein stability index: 0.643 ± 0.014

## VVGAIRWGGGRR
  protein stability index: 0.705 ± 0.014

## REKEKMRVVGMT
  protein stability index: 0.746 ± 0.036

## GVCSRAVGSGSF
  protein stability index: 0.715 ± 0.067

## LSPPPLPPVPSP
  protein stability index: 0.712 ± 0.015

## LYWAYLGASVLL
  protein stability index: 0.658 ± 0.013

## EVYPAEADVFGG
  protein stability index: 0.69 ± 0.052

## LNPLAILCSSVF
  protein stability index: 0.617 ± 0.037

## PPPPLAPAPPAF
  protein stability index: 0.744 ± 0.016

## PSPPPPPPTPAS
  protein stability index: 0.655 ± 0.024

## HETRGKTEQNWM
  protein stability index: 0.645 ± 0.053

## GTRRIDSKDICP
  protein stability index: 0.742 ± 0.04

## AWGYFTDTRERY
  protein stability index: 0.687 ± 0.036

## EVNGNYNIVGKA
  protein stability index: 0.652 ± 0.07

## LRPFSRVLRARS
  protein stability index: 0.628 ± 0.019

## TARPDKDYPRLA
  protein stability index: 0.678 ± 0.013

## IWQLRARIQAGW
  protein stability index: 0.617 ± 0.047

## CTSSVRARRRFR
  protein stability index: 0.698 ± 0.043

## WSWGGLHRELAA
  protein stability index: 0.744 ± 0.0099

## VSGDLRRWRNSE
  protein stability index: 0.673 ± 0.043

## GDTQESSHIRIY
  protein stability index: 0.669 ± 0.051

## LLGVYVRSFGSK
  protein stability index: 0.698 ± 0.015

## GVIRGNRLELIV
  protein stability index: 0.618 ± 0.025

## PSPLPRPPPLPL
  protein stability index: 0.656 ± 0.039

## FKSVPTLPHPSP
  protein stability index: 0.6701 ± 0.0045

## PPPPPPPLPSLR
  protein stability index: 0.671 ± 0.0086

## PSPPVPRPPPSP
  protein stability index: 0.647 ± 0.018

## SSHWGRSRLASG
  protein stability index: 0.674 ± 0.1

## VCRGFRHQCWYG
  protein stability index: 0.665 ± 0.013

## CSPSDCGWQLVL
  protein stability index: 0.604 ± 0.09

## SCFCNFFRFCCI
  protein stability index: 0.637 ± 0.029

## WGWGGGWSGACL
  protein stability index: 0.679 ± 0.0071

## VYSSVPGRIAID
  protein stability index: 0.708 ± 0.008

## FYFLFVFICLRV
  protein stability index: 0.6642 ± 0.0062

## LPSASPPSPPPP
  protein stability index: 0.652 ± 0.037

## LPSPPVSIPYPS
  protein stability index: 0.671 ± 0.029

## PPPSTPLSPSSP
  protein stability index: 0.72 ± 0.11

## PSVLPSSCTPSP
  protein stability index: 0.663 ± 0.03

## VQIALTLNSPSL
  protein stability index: 0.605 ± 0.058

## SPTPLDPLRAPL
  protein stability index: 0.6902 ± 0.0027

## DIHLSRQKTRIL
  protein stability index: 0.752 ± 0.17

## PPPQHLPPPSLS
  protein stability index: 0.676 ± 0.019

## TVYRQRRDAPTR
  protein stability index: 0.727 ± 0.022

## LVLLTRSASLLG
  protein stability index: 0.691 ± 0.094

## GPPTASPLVAPA
  protein stability index: 0.621 ± 0.02

## KRKKQGNKKQEE
  protein stability index: 0.6893 ± 0.0017

## RPPHSNPPRLVI
  protein stability index: 0.711 ± 0.045

## PHSLLPSSAPRN
  protein stability index: 0.696 ± 0.024

## WIGRSVGVELCR
  protein stability index: 0.807 ± 0.13

## SPFPPLPSRPPP
  protein stability index: 0.676 ± 0.0097

## PFAHPPRLPLFP
  protein stability index: 0.742 ± 0.096

## VQGGRNGEGGRG
  protein stability index: 0.651 ± 0.081

## ASRPPAPVPLPL
  protein stability index: 0.686 ± 0.015

## RGLVRLIRGGYN
  protein stability index: 0.698 ± 0.18
